# Reference: patent US20260102487A1 (Amgen, published 2026)
# Changes are numbered by the printed parent chain.
# T1: IL2RB, Cyno (Macaca fascicularis, UniProt Q38J85)
# T1 construct: Same protein as m18, but here as recombinant protein in solution, not on CHO cells; also called cynomolgus IL-2RB (Sino Biological)
# T1 sequence (receptor chain, looked up): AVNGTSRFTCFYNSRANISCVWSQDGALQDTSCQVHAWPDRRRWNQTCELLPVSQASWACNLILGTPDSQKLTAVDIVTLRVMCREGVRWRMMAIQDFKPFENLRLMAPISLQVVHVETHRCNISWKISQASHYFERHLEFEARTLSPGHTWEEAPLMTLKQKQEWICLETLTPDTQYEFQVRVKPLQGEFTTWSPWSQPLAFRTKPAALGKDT
# T2: human IL-2Rγ (recombinant protein and on cells) (human, UniProt P31785 23-262, limits assumed)
# T2 construct: recombinant protein and of cells together; also called IL2RG; CD132
# T2 sequence: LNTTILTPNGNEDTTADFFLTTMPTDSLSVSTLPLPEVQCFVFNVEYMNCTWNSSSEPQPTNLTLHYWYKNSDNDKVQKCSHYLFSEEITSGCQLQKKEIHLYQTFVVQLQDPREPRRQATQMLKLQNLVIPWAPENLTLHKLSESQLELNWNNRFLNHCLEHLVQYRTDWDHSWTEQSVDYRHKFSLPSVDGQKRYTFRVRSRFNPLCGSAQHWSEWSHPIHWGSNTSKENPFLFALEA
# T3: IL2RB, Human
# T3 construct: Same protein as m17, but here as recombinant protein in solution, not on CHO cells; also called human IL-2RB (AcroBiosystems); IL-2Rβ
# T3 receptor chain: T1 sequence (receptor chain, looked up) with R7Q, T66A, A74T, M83L, M92V, K127E, M158L
# T4: human IL-2Rβγ receptor on primary human T-cells and NK-cells (PBMCs) (human, UniProt P14784 27-551; P31785 23-369)
# T4 construct: Endogenous receptor on primary cells; also called dimeric IL-2Rβγ receptor complex
# T4 sequence 1: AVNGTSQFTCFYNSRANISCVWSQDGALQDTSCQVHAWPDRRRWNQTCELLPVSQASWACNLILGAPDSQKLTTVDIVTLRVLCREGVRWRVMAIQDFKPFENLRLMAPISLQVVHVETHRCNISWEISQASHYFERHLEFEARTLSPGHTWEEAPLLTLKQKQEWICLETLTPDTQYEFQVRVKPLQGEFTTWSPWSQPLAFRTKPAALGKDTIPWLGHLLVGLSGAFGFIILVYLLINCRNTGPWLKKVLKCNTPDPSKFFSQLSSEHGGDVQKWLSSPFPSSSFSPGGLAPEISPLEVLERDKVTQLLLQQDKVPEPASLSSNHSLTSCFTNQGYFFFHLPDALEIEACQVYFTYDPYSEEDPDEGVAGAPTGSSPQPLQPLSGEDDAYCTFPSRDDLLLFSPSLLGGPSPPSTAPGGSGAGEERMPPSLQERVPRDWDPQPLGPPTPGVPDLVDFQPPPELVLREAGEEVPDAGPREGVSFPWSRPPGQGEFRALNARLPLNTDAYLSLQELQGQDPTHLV
# T4 sequence 2: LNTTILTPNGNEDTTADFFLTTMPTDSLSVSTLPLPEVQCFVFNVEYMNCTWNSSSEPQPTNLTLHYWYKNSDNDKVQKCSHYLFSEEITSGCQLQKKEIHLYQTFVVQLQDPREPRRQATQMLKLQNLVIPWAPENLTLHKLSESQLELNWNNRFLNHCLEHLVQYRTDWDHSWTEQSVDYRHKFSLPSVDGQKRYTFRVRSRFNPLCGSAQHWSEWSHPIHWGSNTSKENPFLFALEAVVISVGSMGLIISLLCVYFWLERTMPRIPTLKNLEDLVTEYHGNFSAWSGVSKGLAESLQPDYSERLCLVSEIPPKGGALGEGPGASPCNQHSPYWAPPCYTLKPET
# B1: BsAb-2 (IL2RB_F09G**IL2RG_F16B) (bispecific antibody, human IgG4, V domains shown)
# V domain 1: QVQLQESGPGLVKSSETLSLTCTVSGGSISSSDWWSWVRQPPGKGLEWIGEIDHSGSTNYNPSLMSRVTISVDKSKNQFSLKLSSVTAADTAVYFCARGSWELTDAFDIRGQGTLVTVSS
# V domain 2: QVQLVESGGGLVKPGGSLRLSCAASGFTFSDYYMSWIRQAPGKGLEWVSYISSSGSTIYYADSVKGRFTISRDNAKNSLYLQMNSLRAEDTAVYYCARGDAVSITGDYRGQGTLVTVSS
# notes: Heavy chain-only bispecific on silenced, stabilised human IgG4 Fc, knobs-into-holes, no light chains; not shown: C-terminal His-tag on the knob chain
# B2: BsAb-4 (IL2RB_F09G**IL2RG_F18A) (bispecific antibody, human IgG4, V domains shown)
# V domain 1: B1 V domain 1
# V domain 2: QVQLVESGGDLVKPGGSLRLSCAASGFTFSDYYMSWLRQAPGKELEWVSHISSSGTTTYYADSVEGRFTITRDNAKNSLYLQMNSLRAEDTAVYYCARGAAVAPGFDSRGQGTLVTVSS
# notes: as for B1
# B3: BsAb-6 (IL2RB_F18E**IL2RG_F16A) (bispecific antibody, human IgG4, V domains shown)
# V domain 1: QVQLVESGGGVVQPGRSLRLSCAASGFTFSSYGMHWVRQAPGKEREWVAVISYDGSNKYYTDSVKGRFTISRDNSKNTLYLEMNSLRAEDTAVYYCARDLDYDVLTGDPVGGFDIWGQGTLVTVSS
# V domain 2: B1 V domain 2 with Y50S, S56D, K65Q, I70L, K76E, Y80F
# notes: as for B1
# B4: BsAb-3 (IL2RB_F09G**IL2RG_F16C) (bispecific antibody, human IgG4, V domains shown)
# V domain 1: B1 V domain 1
# V domain 2: B1 V domain 2 with S30N, Y50H, I70V, K76N, N84H
# notes: as for B1
# B5: BsAb-1 (IL2RB_F09C**IL2RG_F16A) (bispecific antibody, human IgG4, V domains shown)
# V domain 1: B1 V domain 1 with S14P, E16G, T23A, A97G, T104S
# V domain 2: B1 V domain 2 with Y50S, S56D, K65Q, I70L, K76E, Y80F
# notes: as for B1
# B6: BsAb-5 (IL2RB_F09K**IL2RG_F16B) (bispecific antibody, human IgG4, V domains shown)
# V domain 1: B1 V domain 1 with G8S, S14P, D33N, D53S, M65K, K82R, A97G
# V domain 2: B1 V domain 2
# notes: as for B1
# Target: T1, IL2RB, Cyno
# Experiment: biolayer interferometry (Octet Qk384), antibody captured on anti-human Fc (AHC) sensors, antigen 7.8-500 nM in solution, 1:1 fit, KD = kd/ka
# Protocol: (§1) All kinetics measurement experiments were performed on a ForteBio Octet Qk384 instrument using anti-human Fc capture (AHC, 18-5005) sensors. The bispecific heavy chain-only antibodies and antigens were diluted to final concentrations in Kinetics buffer (0.02% Tween20, 0.1% BSA, 0.05% sodium azide, 1X PBS). Kinetics measurements were against the following antigens: human IL-2RB (AcroBiosystems), human TL-2RG (AcroBiosystems), cynomolgus IL-2RB (Sino Biological), cynomolgus IL-2RG (expressed and purified in house using ExpiCHO expression system followed by Ni-NTA his-tag purification). The antibodies were loaded on the AHC sensors at 5 μg/mL for maximum loading. Following a short baseline in Kinetics buffer, the sensors were exposed to a series of analyte concentrations (7.8 nM to 500 nM) for association step and background subtraction was used to correct for sensor drifting. Dissociation was monitored in Kinetics buffer. The capture surfaces were regenerated for 60s. All experiments were performed with shaking at 1000 rpm. ForteBio's data analysis software was used to fit the data to a 1:1 binding model to extract an association rate and dissociation rate. The KD was calculated using the ratio kd/ka.
row,Kd [nM],Binder
1,16.7,B1
2,17.3,B2
3,55.2,B3
4,16,B4
5,10.7,B5
6,16.5,B6

# Target: T2, human IL-2Rγ (recombinant protein and …)
# Experiment: as above
# Protocol: as §1
row,Kd [nM],Binder
1,17.1,B1
2,2.93,B2
3,1.88,B3
4,1.43,B4
5,1.79,B5
6,20.1,B6

# Target: T3, IL2RB, Human
# Experiment: as above
# Protocol: as §1
row,Kd [nM],Binder
1,93.4,B1
2,82.4,B2
3,53.8,B3
4,96.7,B4
5,18.5,B5
6,182,B6

# Target: T4, human IL-2Rβγ receptor on primary human …
# Experiment: flow cytometry cell binding on human CD4+ T-cells (PBMC), gMFI as fold over secondary antibody only
# Protocol: All washes and dilutions of cells, antibodies, and reagents were performed using flow buffer (1X PBS, 1% BSA, 0.1% NaN3, pH 7.4). Staining was performed in a round-bottom 96-well plate (Corning) seeded at 100,000 cells/well, and all incubations were performed at 4° C. or on ice. […] The cells were washed twice with 200 μL flow buffer. The cells were then incubated for 30 minutes with detection antibody (Goat F(ab′)2 Anti-Human IgG-PE, Southern Biotech) at 0.625 μg/mL in flow buffer. Following 2 more washes, the cells were resuspended in a final volume of 150 μL of flow buffer. The cells were analyzed on a BD FACSCelesta or a Guava easyCyte 8-HT flow cytometer. At least 3000 events were collected, and PE geometric mean fluorescence intensity was plotted as a fold over background (cells incubated with secondary detection antibody only). In some secondary screens involving human or cynomolgus PBMCs, an additional CD4 antibody (BioLegend) and/or CD8 antibody (BioLegend) was included to further characterize cell binding.
EC50 (read off the curve) [nM],binding result,Binder
~4,–,B1
~4,–,B2
~7,–,B3
~7,–,B4
~7,–,B5
–,binds,B6
